In publication doi:10.1101/2022.09.14.507916:

Target: octameric HlgAB pore complex of γ-hemolysin (four HlgA and four HlgB, alternating) (Staphylococcus aureus (strain Newman))
Test: cryo-EM structure

**Q.** For “octameric HlgAB pore complex of γ-hemolysin (four HlgA and four HlgB, alternating)”, which stoichiometry N is on record?
**A.** 6
